# Measured values reported in publication PMC9456297 (International Journal of Molecular Sciences, 2022).
# B1: 4N1H VHH (bacterially produced, c-myc- and His-tagged) (VHH)
# VHH: EVQLQESGGGLVQAGASLKLSCAASGRTFSSYAMGWFRQAPGKEREFVAAISRSGGDTKYADSVKGRFAISRDNDKNTVWLRMNSLKPEDTAVYYCAATTYASLSDTYIGEHIYDDWGQGTQVTVSS
# notes: also called cAB-F11N
# B2: 238D2 nanobody (bacterially produced, c-myc- and His-tagged) (VHH)
# VHH: EVQLVESGGGLVQTGGSLRLSCAASGFTFSSYAMSWVRQAPGKGLEWVSGIKSSGDSTRYAGSVKGRFTISRDNAKNMLYLQMYSLKPEDTAVYYCAKSRVSRTGLYTYDNRGQGTQVTVSS
# notes: also called anti-CXCR4 Nb
# B3: 3SM5 VH domain (bacterially produced, c-myc- and His-tagged) (domain or fragment)
# VH: MEVQLVQSGAEVKKPGASVKVSCKASGYTFTDYHINWVRQAPGQGLEWMGWIHPNSGDTNYAQKFQGWVTMTRDTAISTAYMEVNGLKSDDTAVYYCARGGLEPRSVDYYYYGMDVWGQGTTVTVSS
# notes: also called VH of CH65
# What was measured:
# [1] = target: AviTag-3SM5 (biotinylated, c-myc-tagged 3SM5 VH); assay: BLI
# [2] = target: AviTag-238D2 (biotinylated, c-myc-tagged 238D2); assay: BLI
# [3] = target: T1, SNAP-tagged hCXCR4 labelled with Lumi4-Terbium (human, UniProt P61073 1-352, Lumi4-Terbium on the SNAP tag); assay: AlphaScreen or HTRF; conditions: one partner purified
# T1 construct: also called SNAP-CXCR4; Terbium-linked SNAP-tagged CXCR4
# T1 sequence (P61073 whole entry): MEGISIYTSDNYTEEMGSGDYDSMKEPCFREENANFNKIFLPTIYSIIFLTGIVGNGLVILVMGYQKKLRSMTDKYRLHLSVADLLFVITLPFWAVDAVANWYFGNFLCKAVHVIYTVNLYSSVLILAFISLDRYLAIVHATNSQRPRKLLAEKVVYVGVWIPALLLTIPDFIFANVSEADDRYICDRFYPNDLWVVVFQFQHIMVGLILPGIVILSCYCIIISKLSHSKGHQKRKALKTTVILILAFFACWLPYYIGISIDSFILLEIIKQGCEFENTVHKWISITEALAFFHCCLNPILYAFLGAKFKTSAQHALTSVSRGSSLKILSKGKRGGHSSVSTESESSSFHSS
Molecule,Kd [1] [nM],Kd [2] [nM],IC50 [3] [nM]
Influenza A H1N1 (A/SOLOMON ISLANDS/3/2006): hemagglutinin H1 as a fusion protein with the neuraminidase N1,236,119,–
B1,–,–,39.8
B2,–,–,58.4
B3,–,–,69.1
